The source of these data is publication PMC6455120 (2019).

As a reminder, the Kd is the constant that tells how readily two partners part at equilibrium. A lower Kd goes with higher affinity.

In the test the target is T1, MERS-CoV spike ectodomain ECD (Middle East respiratory …, UniProt K9N5Q8).
T1 chain: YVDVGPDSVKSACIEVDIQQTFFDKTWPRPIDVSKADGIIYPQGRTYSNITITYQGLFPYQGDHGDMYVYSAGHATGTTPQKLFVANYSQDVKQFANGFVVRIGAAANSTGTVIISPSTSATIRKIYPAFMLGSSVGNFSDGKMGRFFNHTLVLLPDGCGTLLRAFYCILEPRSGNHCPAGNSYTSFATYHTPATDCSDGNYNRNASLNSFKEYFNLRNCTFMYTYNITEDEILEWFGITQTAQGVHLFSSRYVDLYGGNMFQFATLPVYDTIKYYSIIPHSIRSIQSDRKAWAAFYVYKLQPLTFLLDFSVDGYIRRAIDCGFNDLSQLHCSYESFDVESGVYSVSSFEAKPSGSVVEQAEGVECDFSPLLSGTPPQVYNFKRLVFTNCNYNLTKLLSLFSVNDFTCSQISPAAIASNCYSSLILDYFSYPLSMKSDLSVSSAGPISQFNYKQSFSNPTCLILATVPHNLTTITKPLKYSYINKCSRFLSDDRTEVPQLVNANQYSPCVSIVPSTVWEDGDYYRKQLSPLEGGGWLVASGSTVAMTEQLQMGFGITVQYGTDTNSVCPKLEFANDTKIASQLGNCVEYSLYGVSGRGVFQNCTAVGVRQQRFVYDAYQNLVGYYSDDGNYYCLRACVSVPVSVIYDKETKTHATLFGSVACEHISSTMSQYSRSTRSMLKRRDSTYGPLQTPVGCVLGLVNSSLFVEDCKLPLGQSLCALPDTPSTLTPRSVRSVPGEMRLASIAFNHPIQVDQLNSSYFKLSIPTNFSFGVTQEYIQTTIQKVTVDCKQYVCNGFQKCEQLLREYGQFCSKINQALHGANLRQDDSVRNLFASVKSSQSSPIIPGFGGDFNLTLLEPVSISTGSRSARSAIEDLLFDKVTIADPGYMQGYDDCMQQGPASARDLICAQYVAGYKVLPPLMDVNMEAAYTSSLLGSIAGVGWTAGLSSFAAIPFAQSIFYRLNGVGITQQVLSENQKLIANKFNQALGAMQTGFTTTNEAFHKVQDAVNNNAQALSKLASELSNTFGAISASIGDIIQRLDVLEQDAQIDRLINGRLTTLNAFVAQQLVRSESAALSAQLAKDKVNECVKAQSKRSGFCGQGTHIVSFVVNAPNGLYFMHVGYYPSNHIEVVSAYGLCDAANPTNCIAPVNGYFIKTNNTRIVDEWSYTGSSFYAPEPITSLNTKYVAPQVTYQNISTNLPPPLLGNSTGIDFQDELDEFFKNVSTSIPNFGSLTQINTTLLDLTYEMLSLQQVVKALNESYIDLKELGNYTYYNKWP

B1: DPP4 (protein)
chain: SRKTYTLTDYLKNTYRLKLYSLRWISDHEYLYKQENNILVFNAEYGNSSVFLENSTFDEFGHSINDYSISPDGQFILLEYNYVKQWRHSYTASYDIYDLNKRQLITEERIPNNTQWVTWSPVGHKLAYVWNNDIYVKIEPNLPSYRITWTGKEDIIYNGITDWVYEEEVFSAYSALWWSPNGTFLAYAQFNDTEVPLIEYSFYSDESLQYPKTVRVPYPKAGAVNPTVKFFVVNTDSLSSVTNATSIQITAPASMLIGDHYLCDVTWATQERISLQWLRRIQNYSVMDICDYDESSGRWNCLVARQHIEMSTTGWVGRFRPSEPHFTLDGNSFYKIISNEEGYRHICYFQIDKKDCTFITKGTWEVIGIEALTSDYLYYISNEYKGMPGGRNLYKIQLSDYTKVTCLSCELNPERCQYYSVSFSKEAKYYQLRCSGPGLPLYTLHSSVNDKGLRVLEDNSALDKMLQNVQMPSKKLDFIILNETKFWYQMILPPHFDKSKKYPLLLDVYAGPCSQKADTVFRLNWATYLASTENIIVASFDGRGSGYQGDKIMHAINRRLGTFEVEDQIEAARQFSKMGFVDNKRIAIWGWSYGGYVTSMVLGSGSGVFKCGIAVAPVSRWEYYDSVYTERYMGLPTPEDNLDHYRNSTVMSRAENFKQVEYLLIHGTADDNVHFQQSAQISKALVDVGVDFQAMWYTDEDHGIASSTAHQHIYTHMSHFIKQCFSLP
B1 gave a Kd of 3.42 nM.
